Experiments:
[1] = target: T1, L1 (DV1-GV4), recombinant soluble human Vδ1/Vγ4 γδ TCR heterodimer (human); test: SPR
T1 construct: Biotinylated in the DELFIA ranking assay; also called human TRDV1; human Vδ1 antigen

[2] = target: T2, human EGFR, recombinant protein (human, UniProt P00533 25-645); test: SPR
T2 construct: Bought protein; also called human EGFR antigen

[3] = target: T1, L1 (DV1-GV4), recombinant soluble human …; test: SPR (Reichert 4SPR), antibody on Protein A chip, human Vδ1 antigen as analyte, 1:1 fit, mean of two replicates (Avg KD)
Excerpt: The binding affinity of the antibodies to target (i.e. the Vδ1 chain of a γ TCR) is established by SPR analysis using a Reichert 4SPR instrument (Reichert Technologies).
The binding interaction of Vδ1 and the affinity-matured mAbs were modelled according to Langmuir 1:1 binding.

[4] = target: T3, Vδ1 TCR on human Vδ1-positive γδ T cells (human, UniProt A0A1B0GX56 22-115); test: flow cytometry binding to γδ T cells, Donor 1 (ATS006); column head printed IC50 (nM), the text calls it EC50 of binding; same value in the table of FIG. 11C
T3 construct: also called Vδ1 γδ T-cells; cell surface Vδ1 TCR
Description: (§1) (FIGS. 11A-11B) The level of binding by the V61 mAbs to two γδ T cell donors, ATS006 (FIG. 11A) and TS164 (FIG. 11B). γδ T cells were stained with varying concentrations of Vδ1 mAbs, followed by a fluorescent anti-human IgG detection antibody (xxx). All incubation steps were performed at 4° C. and mAb binding was determined using flow cytometry to measure the median level of fluorescence. Logarithmic four parameter dose-response curves were fitted using GraphPad Prism 9.
(§2) A range of target cells were assayed to determine the specificity and affinity of Vδ1 mAb binding. This included expanded skin-derived Vδ1 γδ T-cells, HEK293T cells, Raji cells, and multiple leukocyte subsets within human primary blood mononuclear cells. Adherent or semi-adherent cells (skin-derived Vδ1 γδ T-cells, HEK293T) were detached from tissue culture flask and resuspended in PBS. Similarly, non-adherent cell types (Raji, PBMC), were harvested and resuspended in PBS. Cells were seeded at a final density of 100,000 cells per well in v-bottom 96-well plates. Cells underwent centrifugation and the cell pellets were resuspended in FcR blocking reagent according to the manufacturer's instructions, and incubated for 20 minutes at 4C prior to a further wash. […] To determine the quantity of mAb bound to the cell surface, the cells were then stained with a murine anti-human IgG secondary antibody, conjugated to APC (product code . . . , dilution: 1:100). For Vδ1 γδ T-cells, HEK293T and Raji, the cells were also stained solely with a viability dye.

[5] = target: T3, Vδ1 TCR on human Vδ1-positive γδ T cells; test: flow cytometry binding to γδ T cells, Donor 2 (TS164); column head printed IC50 (nM), the text calls it EC50 of binding; same value in the table of FIG. 11C
Description: as §1, §2

T1 sequence (main, as listed by the source): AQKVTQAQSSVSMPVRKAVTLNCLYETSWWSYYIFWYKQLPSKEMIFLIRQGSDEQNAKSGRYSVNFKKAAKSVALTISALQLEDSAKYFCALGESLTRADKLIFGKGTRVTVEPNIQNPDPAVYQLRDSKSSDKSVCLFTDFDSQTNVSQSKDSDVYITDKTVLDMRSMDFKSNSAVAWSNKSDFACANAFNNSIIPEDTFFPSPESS
T3 sequence (A0A1B0GX56 22-115 limits assumed, stated change not applied): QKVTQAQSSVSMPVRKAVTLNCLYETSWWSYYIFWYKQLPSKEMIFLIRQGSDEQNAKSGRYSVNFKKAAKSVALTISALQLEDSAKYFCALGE

Kd [1] [nM]	Kd [2] [nM]	Kd [3] [nM]	EC50 [4] [nM]	EC50 [5] [nM]	Binder
152	1.14				ADT1-4/ADT3-1 (bispecific antibody, human IgG1, V domains shown, mAb2; also called G04 × FS1-67; G04 FS1-67) VH: QVQLQQSGPGLVKPSQTLSLTCAISGDSVSSKSAAWNWIRQSPSRGLEWLGRTYYRSKWSTDYAASVKSRITINPDTSKNQLSLQLNSVTPEDTAVYYCARTWSGYVDVWGQGTLVTVSS VL: DIQMTQSPPALSASVGDRVTITCRASQDINDWLAWYQHKPGKAPKLLIYDASSLESGVPSRFSGSGSGTEFTLTISSLQPDDFATYYCQQSYSTPQVTFGQGTRLEIKR
		38.1	> 100	226	ADT1-7 (parental) (antibody, IgG1, V domains shown, IgG1; also called E07; 1245_P01_E07) VH: QVQLVESGGGLVKPGGSLRLSCAASGFTFSDYYMSWIRQAPGKGLEWVSYISSSGSTIYYADSVKGRFTISRDNAKNSLYLQMNSLRAEDTAVYYCARVDYADAFDIWGQGTLVTVSS VL: DIQMTQSPSSLSASVGDRVTIACRAGQSIGTYLNWYQQKPGKAPKLLIYVASSLQSGVPSRFSGSGSGTEFTLTISSLQPEDFATYYCQQSYSTLLTFGRGTKVEIK
		1.04	93	196	ADT1-7-61 (antibody, IgG1, V domains shown, IgG1) VH: EVQLVESGGGLVKPGGSLRLSCAASGFTFSDYYMSWIRQAPGKGLEWVSYISSSGSTIYYADSVKGRFTISRDNAKNSLYLQMNSLRAEDTAVYYCARDDYDDAFDIWGQGTLVTVSS VL: DIQMTQSPSSLSASVGDRVTIACRAGQSIGTYLNWYQQKPGKAPKLLIYVASSLQSGVPSRFSGSGSGTEFTLTISSLQPEDFATYYCQQSASELLTFGRGTKVEIK
		4.99	37.2	2.68	ADT1-7-20 (antibody, IgG1, V domains shown, IgG1) VH: EVQLVESGGGLVKPGGSLRLSCAASGFTFSDYYMSWIRQAPGKGLEWVSYISSSGSTIYYADSVKGRFTISRDNAKNSLYLQMNSLRAEDTAVYYCARVDYQEAFDIWGQGTLVTVSS VL: DIQMTQSPSSLSASVGDRVTIACRAGQSIGTYLNWYQQKPGKAPKLLIYVASSLQSGVPSRFSGSGSGTEFTLTISSLQPEDFATYYCQQSYSGLDTFGRGTKVEIK
		3.78	5.15	0.952	ADT1-7-3 (antibody, IgG1, V domains shown, IgG1) VH: EVQLVESGGGLVKPGGSLRLSCAASGFTFSDYYMSWIRQAPGKGLEWVSYISSSGSTIYYADSVKGRFTISRDNAKNSLYLQMNSLRAEDTAVYYCARVSYAEAFDIWGQGTLVTVSS VL: DIQMTQSPSSLSASVGDRVTIACRAGQSIGTYLNWYQQKPGKAPKLLIYVASSLQSGVPSRFSGSGSGTEFTLTISSLQPEDFATYYCQQSYSGLDTFGRGTKVEIK
0.818	19.2				ADT1-4-2/ADT3-6 (bispecific antibody, mAb2; also called ADT1-4-2xLEE2) heavy: EVQLQQSGPGLVKPSQTLSLTCAISGDSVSSKSAAWNWIRQSPSRGLEWLGRTYYRSKWSTDYAASVKSRITINPDTSKNQLSLQLNSVTPEDTAVYYCARTWVGYVDRWGQGTLVTVSSASTKGPSVFPLAPSSKSTSGGTAALGCLVKDYFPEPVTVSWNSGALTSGVHTFPAVLQSSGLYSLSSVVTVPSSSLGTQTYICNVNHKPSNTKVDKKVEPKSCDKTHTCPPCPAPELAGAPSVFLFPPKPKDTLMISRTPEVTCVVVDVSHEDPEVKFNWYVDGVEVHNAKTKPREEQYNSTYRVVSVLTVLHQDWLNGKEYKCKVSNKALPAPIEKTISKAKGQPREPQVYTLPPSRDELEEGPVSLTCLVKGFYPSDIAVEWESNGQPENNYKTTPPVLDSDGSFFLYSKLTVSYWRWYKGNVFSCSVMHEALHNHYTQKSLSLSPG light: DIQMTQSPPALSASVGDRVTITCRASQDINDWLAWYQHKPGKAPKLLIYDASSLESGVPLRFSGSGSGTEFTLTISSLQPDDFATYYCQQKYSAPQVTFGQGTRLEIKRTVAAPSVFIFPPSDEQLKSGTASVVCLLNNFYPREAKVQWKVDNALQSGNSQESVTEQDSKDSTYSLSSTLTLSKADYEKHKVYACEVTHQGLSSPVTKSFNRGEC
0.378	1.37				ADT1-4-2/ADT3-1 (bispecific antibody, mAb2; also called ADT1-4-2xFS1-67) heavy: EVQLQQSGPGLVKPSQTLSLTCAISGDSVSSKSAAWNWIRQSPSRGLEWLGRTYYRSKWSTDYAASVKSRITINPDTSKNQLSLQLNSVTPEDTAVYYCARTWVGYVDRWGQGTLVTVSSASTKGPSVFPLAPSSKSTSGGTAALGCLVKDYFPEPVTVSWNSGALTSGVHTFPAVLQSSGLYSLSSVVTVPSSSLGTQTYICNVNHKPSNTKVDKKVEPKSCDKTHTCPPCPAPELAGAPSVFLFPPKPKDTLMISRTPEVTCVVVDVSHEDPEVKFNWYVDGVEVHNAKTKPREEQYNSTYRVVSVLTVLHQDWLNGKEYKCKVSNKALPAPIEKTISKAKGQPREPQVYTLPPSRDETDDGPVSLTCLVKGFYPSDIAVEWESTYGPENNYKTTPPVLDSDGSFFLYSKLTVSYWRWYKGNVFSCSVMHEALHNHYTQKSLSLSPG light: DIQMTQSPPALSASVGDRVTITCRASQDINDWLAWYQHKPGKAPKLLIYDASSLESGVPLRFSGSGSGTEFTLTISSLQPDDFATYYCQQKYSAPQVTFGQGTRLEIKRTVAAPSVFIFPPSDEQLKSGTASVVCLLNNFYPREAKVQWKVDNALQSGNSQESVTEQDSKDSTYSLSSTLTLSKADYEKHKVYACEVTHQGLSSPVTKSFNRGEC
0.464	1.35				ADT1-4-2/ADT3-3 (bispecific antibody, human IgG1, kappa, also called ADT1-4-2xFS1-65) heavy: EVQLQQSGPGLVKPSQTLSLTCAISGDSVSSKSAAWNWIRQSPSRGLEWLGRTYYRSKWSTDYAASVKSRITINPDTSKNQLSLQLNSVTPEDTAVYYCARTWVGYVDRWGQGTLVTVSSASTKGPSVFPLAPSSKSTSGGTAALGCLVKDYFPEPVTVSWNSGALTSGVHTFPAVLQSSGLYSLSSVVTVPSSSLGTQTYICNVNHKPSNTKVDKKVEPKSCDKTHTCPPCPAPELAGAPSVFLFPPKPKDTLMISRTPEVTCVVVDVSHEDPEVKFNWYVDGVEVHNAKTKPREEQYNSTYRVVSVLTVLHQDWLNGKEYKCKVSNKALPAPIEKTISKAKGQPREPQVYTLPPSRDELDEGGPVSLTCLVKGFYPSDIAVEWESTYGPENNYKTTPPVLDSDGSFFLYSKLTVSYWRWVKGNVFSCSVMHEALHNHYTQKSLSLSPG light: DIQMTQSPPALSASVGDRVTITCRASQDINDWLAWYQHKPGKAPKLLIYDASSLESGVPLRFSGSGSGTEFTLTISSLQPDDFATYYCQQKYSAPQVTFGQGTRLEIKRTVAAPSVFIFPPSDEQLKSGTASVVCLLNNFYPREAKVQWKVDNALQSGNSQESVTEQDSKDSTYSLSSTLTLSKADYEKHKVYACEVTHQGLSSPVTKSFNRGEC
0.511	2.35				ADT1-4-2/ADT3-4 (bispecific antibody, mAb2; also called ADT1-4-2x747) heavy: EVQLQQSGPGLVKPSQTLSLTCAISGDSVSSKSAAWNWIRQSPSRGLEWLGRTYYRSKWSTDYAASVKSRITINPDTSKNQLSLQLNSVTPEDTAVYYCARTWVGYVDRWGQGTLVTVSSASTKGPSVFPLAPSSKSTSGGTAALGCLVKDYFPEPVTVSWNSGALTSGVHTFPAVLQSSGLYSLSSVVTVPSSSLGTQTYICNVNHKPSNTKVDKKVEPKSCDKTHTCPPCPAPELAGAPSVFLFPPKPKDTLMISRTPEVTCVVVDVSHEDPEVKFNWYVDGVEVHNAKTKPREEQYNSTYRVVSVLTVLHQDWLNGKEYKCKVSNKALPAPIEKTISKAKGQPREPQVYTLPPSRDETESGPVSLTCLVKGFYPSDIVVEWESKFGPENNYKTTPPVLDSDGSFFLYSKLTVSNLRWTKGHVFSCSVMHEALHNHYTQKSLSLSPG light: DIQMTQSPPALSASVGDRVTITCRASQDINDWLAWYQHKPGKAPKLLIYDASSLESGVPLRFSGSGSGTEFTLTISSLQPDDFATYYCQQKYSAPQVTFGQGTRLEIKRTVAAPSVFIFPPSDEQLKSGTASVVCLLNNFYPREAKVQWKVDNALQSGNSQESVTEQDSKDSTYSLSSTLTLSKADYEKHKVYACEVTHQGLSSPVTKSFNRGEC
